Among the data in paper PMC3361975 are Km values, retold here.

This data set deals with NC(=O)c1ccc[n+]([C@@H]2O[C@H](COP(=O)(O)OP(=O)(O)OC[C@H]3O[C@@H](n4cnc5c(N)ncnc54)[C@H](O)[C@@H]3O)[C@@H](O)[C@H]2O)c1. As to the kind of experiment: purified protein. The settings on record: phosphite and NAD+ varied, 100 mM MOPS pH 7.25, 25 °C.
Regarding “17X-PTDH (Stutzerimonas stutzeri; A319E/A325V/C336D/D13E/E130K/E175A/E332N/I150F/I313L/L276Q/M26I/Q132R/Q137R/Q215L/R275Q/R301A/V315A/V71I)”, the Km is listed as 0.216 (0.015) mM.
Take “17X-PTDH (Stutzerimonas stutzeri; A319E/A325V/C336D/D13E/E130K/E175A/E332N/I150F/I313L/L276Q/M26I/Q132R/Q137R/Q215L/R275Q/R301K/V315A/V71I)”: the Km is recorded as 0.074 (0.007) mM.
As for “17X-PTDH (Stutzerimonas stutzeri; A319E/A325V/C336D/D13E/E130K/E175A/E332N/I150F/I313L/L276Q/M26I/Q132R/Q137R/Q215L/R275Q/V315A/V71I)”, the figure is 0.022 (0.006) mM.
